In US20030158387:

Columns and labels:
[1] = system: processed human chemokine PHC-1 (HCC-1[9-74])
[2] = system: T1, full size human chemokine HCC-1 (residues 1-74)
T1 sequence: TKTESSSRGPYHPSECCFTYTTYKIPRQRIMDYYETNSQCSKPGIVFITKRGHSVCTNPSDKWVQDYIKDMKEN

Substance	activity of 50 nM PHC-1 after incubation with 10 or 100 IU purified urokinase [1]	proteolytic cleavage (tryptic digestion, enzyme/substrate-ratio (w/w) 1/100, one hour) [2]	proteolytic degradation (tryptic digestion with increased incubation time) [1]
urokinase (purified CHOAY urokinase, Sanofi Wintrop; uPA)	No change of activity was observed after an incubation of 90 min at 37 °C		
trypsin		the 74 residue peptide was in part cleaved into smaller fragments. One cleavage product, the newly identified biologically active peptide PHC-1	trypsin generated PHC-1 then degrades PHC-1 into inactive fragments when the incubation time is increased
